Source: US20140023641A1 (MERCK SERONO S A, published 2014)
Residue numbers refer to the chain shown, from its start. Names and notes keep the numbering of the source. Blank lines part the entries; values can stand above or below the binder they belong to.

Columns and labels:
[1] = molecular target: T1, human GM-CSF T117 isoform (human, UniProt P04141 18-144); assay: cell-based or functional assay
[2] = molecular target: T2, human GM-CSF I117 isoform (human, UniProt P04141 18-144); assay: cell-based or functional assay
[3] = molecular target: T3, macaca GM-CSF (rhesus, Macaca mulatta; cynomolgus, Macaca fascicularis, identical sequence) (Macaca mulatta / Macaca fascicularis, UniProt Q0MUT8 18-144 (Chlorocebus aethiops entry), limits assumed); assay: cell-based or functional assay
T3 chain: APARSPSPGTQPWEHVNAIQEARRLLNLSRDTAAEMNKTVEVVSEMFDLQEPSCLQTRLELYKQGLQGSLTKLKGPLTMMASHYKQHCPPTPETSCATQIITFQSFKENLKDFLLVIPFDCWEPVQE

[4] = molecular target: T2, human GM-CSF I117 isoform; assay: TF-1 proliferation assay and KinExA
Description: To determine potency and affinity of the antibody, Kd measurements and a proliferation bioassay of TF-1 cells were performed. TF-1 is an erythroleukemic cell line from blood, which proliferates in response to e.g. GM-CSF. Kd determination was carried out with the Kinetic Exclusion Assay (KinExA®; Sapidyne Instruments, Inc., Boise, Id., USA).

[5] = molecular target: T1, human GM-CSF T117 isoform; assay: KinExA, affinity in solution; largest Kd ratio across the three GM-CSF targets, by Table 3 hGM-CSF T117 (174 pM) against hGM-CSF I117 (17 pM)
Description: (§1) The 4K21 and reference antibodies were incubated at concentration below the expected Kd with serial dilutions of human GM-CSF I117 or T117, or macaca GM-CSF up to equilibrium. The remaining free antibody was measured in a Kinetic exclusion assay with the KinExA® instrument. Kd was calculated by fitting the curve of the signal obtained versus the GM-CSF concentrations. The average of two experiments using different IgG concentrations was calculated.

[6] = molecular target: T1, human GM-CSF T117 isoform; assay: KinExA, affinity in solution, average n = 2
Description: as §1

[7] = molecular target: T2, human GM-CSF I117 isoform; assay: KinExA, affinity in solution, average n = 2
Description: as §1

[8] = molecular target: T3, macaca GM-CSF (rhesus, Macaca mulatta; …); assay: KinExA, affinity in solution, average n = 2
Description: as §1

[9] = molecular target: T1, human GM-CSF T117 isoform; assay: cell-based or functional assay; remark: listed apart in the source
[10] = molecular target: T2, human GM-CSF I117 isoform; assay: cell-based or functional assay; remark: listed apart in the source
[11] = molecular target: T3, macaca GM-CSF (rhesus, Macaca mulatta; …); assay: cell-based or functional assay
[12] = molecular target: T1, human GM-CSF T117 isoform; assay: cell-based or functional assay; remark: listed apart in the source
[13] = molecular target: T3, macaca GM-CSF (rhesus, Macaca mulatta; …); assay: cell-based or functional assay
[14] = molecular target: T1, human GM-CSF T117 isoform; assay: cell-based or functional assay; remark: listed apart in the source
[15] = molecular target: T2, human GM-CSF I117 isoform; assay: cell-based or functional assay; remark: listed apart in the source
human GM-CSF A117 mutant = molecular target: T4, human GM-CSF A117 mutant (human, UniProt P04141 18-144); assay: competition ELISA: antibody binding to coated human GM-CSF, soluble human GM-CSF A117 as competitor (one condition, concentration not given)
T4 construct: also called hGM-CSF A117
Text: Detection of humanized parental anti-GM-CSF 4K21 binding to coated wild-type GM-CSF is competed away by soluble […]. Binding of all optimized 4K21 antibodies to the GM-CSF coated wells is not affected anymore by the presence of A117 protein in solution.

[16] = molecular target: T3, macaca GM-CSF (rhesus, Macaca mulatta; …); assay: KinExA, affinity in solution; largest Kd ratio across the three GM-CSF targets, by Table 3 macaca (11 pM) against hGM-CSF I117 (4 pM)
Description: as §1

B3: humanized parental anti-GM-CSF 4K21 VH3-07.1AL+VK2-A3.2 hIgG1 K antibody (MSB0010439) (antibody, V domains shown)
VH: EVQLVESGGGLVQPGGSLRLSCAASGFAFSAYDMSWVRQAPGKRLELVAYISSGGSSFYYPDTVKGRFTISRDNAKNSLYLQMNSLRAEDTAVYYCTRHLGFDYWGQGTLVTVSS
VL: DIVMTQSPLSLPVTPGEPASISCRSSQSLVNSNGNTYLHWYLQKPGQSPQLLIYKVSNRFSGVPDRFSGSGSGTDFTLKISRVEAEDVGVYYCSQSTHVPPTFGQGTKVEIK
notes: hIgG1 kappa; also called humanized parental 4K21 hVH hVL; humanized parental 4K21
Fold human T117/I117 (TF-1 proliferation IC50) [1]: 11.6 fold | Fold improvement of humanized parental 4K21 on T117 (TF-1 proliferation IC50) [1]: 1 fold | IC50 (pM), inhibition of GM-CSF induced TF-1 proliferation (32 pM GM-CSF, average n = 3) [1]: 1400 pM | Fold improvement of humanized parental 4K21 on I117 (TF-1 proliferation IC50) [2]: 1 fold | IC50 (pM), inhibition of GM-CSF induced TF-1 proliferation (32 pM GM-CSF, average n = 3) [2]: 121 pM | Fold improvement of humanized parental 4K21 on macaca (TF-1 proliferation IC50) [3]: 1 fold | Fold macaca/human I117 (TF-1 proliferation IC50) [3]: 6.6 fold | IC50 (pM), inhibition of GM-CSF induced TF-1 proliferation (32 pM GM-CSF, average n = 3) [3]: 793 pM | fold preference for GM-CSF I117 versus T117 [4]: > 10 fold | IC50 (pM), inhibition of GM-CSF induced IL-8 secretion in U937 cells (65 pM GM-CSF, n = 2) [9]: 930 pM | IC50 (pM), inhibition of GM-CSF induced IL-8 secretion in U937 cells (65 pM GM-CSF, n = 2) [10]: 170 pM | IC50 (pM), inhibition of GM-CSF induced IL-8 secretion in U937 cells (65 pM GM-CSF, n = 2) [11]: 1120 pM | fold worse IC50 on T117 than on I117, CD11b upregulation in neutrophils [12]: 10 fold | fold less efficient neutralization than on human GM-CSF (TF-1 proliferation assay) [13]: < 10 fold | Kd [6]: 0.164 nM | Kd [7]: 0.021 nM | Kd [8]: 0.063 nM | Emax (%), inhibition of CD11b upregulation on neutrophils [14]: 68% | IC50 (nM), inhibition of CD11b upregulation on neutrophils [14]: 31.6 nM | Emax (%), inhibition of CD11b upregulation on neutrophils [15]: 65% | IC50 (nM), inhibition of CD11b upregulation on neutrophils [15]: 3.06 nM

B4: 4K21 hVH S55K-T62S hVL N28I-H34S-N53R-H93F (MSB0010628) (antibody, V domains shown)
VH: B3 VH with S56K, T63S
VL: B3 VL with N33I, H39S, N58R, H98F
notes: Tested as IgG ('optimized 4K21 IgGs'); the humanized parent is hIgG1 kappa; also called optimized 4K21 antibody; 4K21 (4K21 VH S55K-T62S VL N28I-H34S-N53R-H93F)
Fold human T117/I117 (TF-1 proliferation IC50) [1]: 1.2 fold | Fold improvement of humanized parental 4K21 on T117 (TF-1 proliferation IC50) [1]: 63 fold | IC50 (pM), inhibition of GM-CSF induced TF-1 proliferation (32 pM GM-CSF, average n = 3) [1]: 22 pM | Fold improvement of humanized parental 4K21 on I117 (TF-1 proliferation IC50) [2]: 6.6 fold | IC50 (pM), inhibition of GM-CSF induced TF-1 proliferation (32 pM GM-CSF, average n = 3) [2]: 18 pM | Fold improvement of humanized parental 4K21 on macaca (TF-1 proliferation IC50) [3]: 11 fold | Fold macaca/human I117 (TF-1 proliferation IC50) [3]: 3.9 fold | IC50 (pM), inhibition of GM-CSF induced TF-1 proliferation (32 pM GM-CSF, average n = 3) [3]: 72 pM | IC50 (pM), inhibition of GM-CSF induced IL-8 secretion in U937 cells (65 pM GM-CSF, n = 2) [9]: 181 pM | IC50 (pM), inhibition of GM-CSF induced IL-8 secretion in U937 cells (65 pM GM-CSF, n = 2) [10]: 257 pM | IC50 (pM), inhibition of GM-CSF induced IL-8 secretion in U937 cells (65 pM GM-CSF, n = 2) [11]: 501 pM | binding result (human GM-CSF A117 mutant): binds | Kd [6]: 0.007 nM | Kd [7]: 0.004 nM | Kd [8]: 0.011 nM | fold affinity difference between the 2 hGM-CSF isoforms and the macaca ortholog [16]: < 3 fold | Emax (%), inhibition of CD11b upregulation on neutrophils [14]: 97% | IC50 (nM), inhibition of CD11b upregulation on neutrophils [14]: 1.98 nM | Emax (%), inhibition of CD11b upregulation on neutrophils [15]: 84% | IC50 (nM), inhibition of CD11b upregulation on neutrophils [15]: 1.65 nM

B5: 4K21 hVH S55K-T62S hVL S27eY-N28I-H34S-N53R-H93F (MSB0010629) (antibody, V domains shown)
VH: B3 VH with S56K, T63S
VL: B3 VL with S32Y, N33I, H39S, N58R, H98F
notes: Tested as IgG ('optimized 4K21 IgGs'); the humanized parent is hIgG1 kappa; also called optimized 4K21 antibody with S27eY; 4K21 (4K21 VH S55K-T62S VL S27eY-N28I-H34S-N53R-H93F)
Fold human T117/I117 (TF-1 proliferation IC50) [1]: 1.6 fold | Fold improvement of humanized parental 4K21 on T117 (TF-1 proliferation IC50) [1]: 32 fold | IC50 (pM), inhibition of GM-CSF induced TF-1 proliferation (32 pM GM-CSF, average n = 3) [1]: 44 pM | Fold improvement of humanized parental 4K21 on I117 (TF-1 proliferation IC50) [2]: 4.4 fold | IC50 (pM), inhibition of GM-CSF induced TF-1 proliferation (32 pM GM-CSF, average n = 3) [2]: 28 pM | Fold improvement of humanized parental 4K21 on macaca (TF-1 proliferation IC50) [3]: 19 fold | Fold macaca/human I117 (TF-1 proliferation IC50) [3]: 1.5 fold | IC50 (pM), inhibition of GM-CSF induced TF-1 proliferation (32 pM GM-CSF, average n = 3) [3]: 42 pM | IC50 (pM), inhibition of GM-CSF induced IL-8 secretion in U937 cells (65 pM GM-CSF, n = 2) [9]: 354 pM | IC50 (pM), inhibition of GM-CSF induced IL-8 secretion in U937 cells (65 pM GM-CSF, n = 2) [10]: 311 pM | IC50 (pM), inhibition of GM-CSF induced IL-8 secretion in U937 cells (65 pM GM-CSF, n = 2) [11]: 286 pM | binding result (human GM-CSF A117 mutant): binds

Other lines, results leading:

Fold human T117/I117 (TF-1 proliferation IC50) [1]: 10.8 fold | Fold improvement of humanized parental 4K21 on T117 (TF-1 proliferation IC50) [1]: 1 fold | IC50 (pM), inhibition of GM-CSF induced TF-1 proliferation (32 pM GM-CSF, average n = 3) [1]: 1410 pM | Fold improvement of humanized parental 4K21 on I117 (TF-1 proliferation IC50) [2]: 0.9 fold | IC50 (pM), inhibition of GM-CSF induced TF-1 proliferation (32 pM GM-CSF, average n = 3) [2]: 130 pM | Fold improvement of humanized parental 4K21 on macaca (TF-1 proliferation IC50) [3]: 0.7 fold | Fold macaca/human I117 (TF-1 proliferation IC50) [3]: 9.3 fold | IC50 (pM), inhibition of GM-CSF induced TF-1 proliferation (32 pM GM-CSF, average n = 3) [3]: 1220 pM | fold preference for GM-CSF I117 versus T117 [4]: > 10 fold | fold affinity difference between the 2 hGM-CSF isoforms and the macaca ortholog [5]: ≤ 10 fold | Kd [6]: 0.174 nM | Kd [7]: 0.017 nM | Kd [8]: 0.104 nM
B1: anti-GM-CSF 4K21 hIgG1 K antibody (MSB0010259), recombinant chimeric 4K21 (antibody, V domains shown)
VH: EVQLVESGGGLVKSGGSLKLSCAASGFAFSAYDMSWVRQTPEKRLELVAYISSGGSSFYYPDTVKGRFTISRDNAKNTLYLQMSSLKSEDTAMYYCTRHLGFDYWGQGTTLTVSS
VL: DVVMTQTPLSLPVSLGDQASISCRSSQSLVNSNGNTYLHWFLQKPGQSPKLLIYKVSNRFSGVPDRFSGSGSGTDFTLKISRVEAEDLGVYFCSQSTHVPPTFGGGTKLEIK
notes: Murine variable domains fused to human constant IgG1 heavy chain and kappa light chain domains; also called parental chimeric 4K21

fold preference for GM-CSF I117 versus T117 [4]: > 10 fold
B2: murine hybridoma-derived 4K21 antibody (antibody, V domains shown)
VH: B1 VH
VL: B1 VL
notes: also called murine 4K21; murine monoclonal antibody 4K21
